Assays:
[1] = target: Plasmodium falciparum EBA-175 region II (P. falciparum)
[2] = target: recombinant GpA extracellular domain fused to Fc and His tag (rGpA-Fc-His) (human) (UniProt P02724); assay: SDS-PAGE without and with reducing agent
[3] = target: recombinant GpA extracellular domain fused to Fc and His tag (rGpA-Fc-His) (human) (UniProt P02724); assay: AUC

“recombinant GpA extracellular domain fused to Fc and His tag (rGpA-Fc-His) (from UniProt P02724 23-84) (Fc fusion)” was tested. Which parasite growth with 30 µM rGpA, strains 3D7, Dd2 and FVO/FCR1 [1] did it give?
Its parasite growth with 30 µM rGpA, strains 3D7, Dd2 and FVO/FCR1 is 50%.

And the stoichiometry N [2]?
Its stoichiometry N is 2.

What about the stoichiometry N [3] of the same substance?
Its stoichiometry N is 2.
